Data published in the DeepSol protein solubility set.

Assay: soluble on expression in E. coli; label from the status in PepcDB or PDB records

Row | Sequence | soluble on expression in E. coli
1 | MGSDKIHHHHHHMGCGVTVANASVYALPVRGNIVGALEAVTTHRDDTLLDIGRFYDLGYNQVTAANPGVNPWLPGQASKVVIPAEYILPPKPWTGIIVDIPARRIYYFPVNDRVVYTYPVGVFLPGWKEALTDTRIIAKFKMPAWNVPKNIHAWFEKKFHMDIPWYWPPGPENPMGELAMETGLSGIFIHGTYHPWGVGMRASQGCFQMFPENVAQLFPMVPVGTPVRIIDQPNLVGVRDGQVYLQSYKPMHAYHKKGIPELQRAVVTIKSFMERNRIEERIDWGMVRRIVTEHNTVALPIGVGAPSYATLSAALPATPYAYAPYGPSANGAAVPPPLPLASAADQEHLHVQVTFPDQKP | not soluble
2 | MGSDKIHHHHHHMHEPVTRILVVATNAPVPGLVAAVKQGFHQRVDYLELAERFDNRHVDYGIVRPNRMLERLEGITRFDLRLASQVNQIVRSARYQAVISLSERVGIPLALMLPQTVRHLVIFHHGMSARKLQLIRTLHLQHRWDIVAAISEAEAKGMRQALGLPAERVVALHTPVDTAFYQPQPGRQQASVVQSLGLSHRDYPTLIRAMRRLPHIPCHLRVGSSWISGRSGHEREVLPANISLQPFVPPVQLRTCYQQSRIVVVPIKASTQWSAGCTSVQAAQAMGRPVIATRRPGLAEYVDEGRTALLVEPGDADGMADAIATLWENPDRAERMGQAGRQLMEERFTIEQWLDRVVELTHKMMDWPARRSTSTMTGSAV | not soluble
3 | GPGSMVFFGVGATGGTGCGPKQACFPWLENSSATRCQRGGRINLRFMLDLPQGDTEAPSTNQKRAVYAFCPIVDELQVFTLKGAGRVSSLLQKTSSSGQASITPNPAPRYLSVFGFGRSGQKEYPERDVSNSTVVIAMRDIGLCNSPDSVAIVNMVILTIGMHDGKFNYISSDADTKEPDDSESGIPSGNSSGTGSPMESVQPAMVGFRPTCDESDHCIFSPTSPCVGPIRGMKNCGACYNTPDDIEGASIQVWTSYQGTDLERQPLLSGGMDPMGFRKFAGGKFVGNIKYAVSKIENTASGMMPGDETNSTP | not soluble
4 | MGSDKIHHHHHHMKILIKQDFDTMSEWAKMLLLSTMSQDKRVNLSITAGKTPALVYQKLASIVKNSSDFDNVHYYNFDEIPVPHQKEGITLTDLRTLYLTPAEISEQNIHPLTVENFQQQEQRIADAGGLDLMLIGLGADGHFCGNMPTTTHFKNETYQVTVTGSEPWFVPEMMQPGMTFVTMGPASIMKVKHLVLIVNGEQKAQMVKQVLQGPVTETYPASILQLHPNLTVLLDEAAASQLEK | not soluble
5 | MGSDKIHHHHHHMDIKNKIKSIFLPEKNDYLDDEEFEYDIENNEEDLKEDNKVHLNDLSRVKYDYRELKDIENQTEEMCLLAVKQDGTIIEFVKDKTYKVCMEAVKQTYKSLKYITNQNEDICIEAVKQNYRALYYINNKTENVLIEAIKNASTYDVMEVFKFVEEQTEDVCLAFIERASKNDVAEILKGIKEQTPAICLEAVKKDGKSLAYVKEQSNSICLEAVKENYSALSCVKEQTEEICIEAVKQNDFALYYVNEQTEKICMEAVKRSYMALQYVNKQTEEICLEAVRIDGRALQYVKEQTEEICLESVRQNGKVLQYVKKQTENICIEAVRGSFEELEIKEILSYVKIPTERIFVEAVKQNGKILKYVENQTELICLEAVRENYNALAYVKEQTEKICLEAVNQSYEALKYVKEQTEEVCLKAVKQDYRMLKYVNNQTEKICLEAVKQNYRALEFVDNQTEKVCLEAVKQNRKALQYVKQKQS | not soluble
6 | GPGSMLSRIKKQQAETRDAAGQSHSSGGGPSTASSEPVAILRLKKDLDNLDGIRSTIDIPDPQNMLRMKVTVRPPYPSIWQGGIFEFLLEFREDYPYEGPRVRYLGPYRIWHPNIEGDEYMEGEGGLRGDVKNTWGVCLSFQTEWKPTMSLRDIIIMIELLFQDPNPDDPLHGTAKQAAQMMKDNPAKFRDKARRWMRGGYIE | soluble
7 | MSLAFEPPRRLVRAFGETAPEGDDWLATLPEVAERAVARRGLTVERVQVPGGRSSLVVLVRTAEGAPAVLKLAPRRARPESERAALVHWGGRGAVQVREEGDEEGVLLLERLHPDVSVRSLPEAKALLEAAGTLRRLWVEPPGSHPFETVAERTGRQAEAMRAGAAADAQVAPLVDAALAARAELLGGPSEQRLLHGTFRQSKVLAGDRMPWLAVGPDPVVGESAFDLARLVRDRVEDLIAQPSGASTTRRRIKRLAESLEVDQERLRGWTLFRAVESGVRARRVGRERDAELLLEFAGWLEGHHHHHH | not soluble
8 | MDVSFEFEHYQVRLIKSSDAVTIANYFMRNRHHLAPWEPKRSHAFFTPEGWKQRLLQLVELHKHNLAFYFVVVDKNEHKIIGTVSYSNITRFPFHAGHVGYSLDSEYQGKGIMRRAVNVTIDWMFKAQNLHRIMAAYIPRNEKSAKVLAALGFVKEGEAKKYLYINGAWEDHILTSKINDDWKPE | not soluble
9 | MKEMTVSEIREVQLEMLAYIDKVARDNKIEYSLGGGSLLGAMRHKGFIPWDDDIDLMLERSQYERLMKALADANNSDFKLLHHSVEKNLWPFAKLYHTKSMYLSKTDRIHPWTGIFIDIFPLDRLPESAEERQRFFKKVHSAAANLMCTTYPNFASGSRKLYANARLILGLPRFIAYHGQAKKRAEIVDQVMETYNNQEVPYMGYTDSRYRLKEYFPREIFSEYEDVMFENIKTRKIKNEHAYLNQLYGGSYMELPPESKRESHSYYTWYWKEGLEHHHHHH | soluble
10 | MGKGVAFFSGGKDGLYALYLAEEMGIEVPYLLVLKTSIGLSPHWENLDALKTLAKVMEREILTFDMRRGSKALAEFISSLDVDYLIAGDVYLEDHILWVKSLAEEANVKPLEPLWGRNTRKLAEEMLREGFNWAIIAVDKRKLGKEWLGYTFRSIEDLENFLRANPNVDPLGEVGEFHTVVLNSPLFALNFELKVESIEEDERYWWLRFELREVEKWNLNS | soluble
11 | MSLVAVRSAHLNPDQQFELETWIASLTQEGKTAAKLTAVYRDCEQLLAGNPQGPLLLWRGREMIEILITLSMDRPTLVAALLFPIATSGVLDNESLEEGYGREVVKLIHGVEEMAAIGQLNVTMHGSEASAQVDNVRRMLLAMVDDFRCVVIKLAERICNLREVKNEPDEVRRVAAKECANIYAPLANRLGIGQLKWEIEDYAFRYQQPDTYKQIAKQLSERRIVREQYIRDFVSDLRAEMKQSGINAEVSGRPKHIYSIWRKMQKKSLAFDELFDVRAVRIIADKLQDCYAALGIVHTKYKHLPNEFDDYVANPKPNGYQSIHTVILGPEGKTIEIQIRTKQMHEESELGVAAHWKYKEGSSAARSGYDEKITWLRKLLDWQEEMSDSGEMLDELRSQVFDDRVYAFTPKGDVVDLPMGATPLDFAYHIHSEVGHRCIGAKVAGRIVPFTHKLQMGDQVEIITAKEPNPSRDWLNPSLGFVHSGRARAKINAWFRKQSREKNLEAGREILEIELAKIGANLKHAEAYALKRFNVNSVDEMYVGIGSGDLRINQIVNHINALVNKPTAEEEDKLALEKLQENKTLTPNRPHKDAVVVEGVDNLMTHLARCCQPIPGDEIRGYITQGRGISVHRSDCEQLEELSLHAPERIIDTVWGSGFVGSYLLTVRVEAMERSGLLKDITTLLANEKVKVASMKSRSDYKRQIIIMDFDLEVNNVEALARVSKRIEQIKDVMLVKRLGEGHHHHHH | not soluble
12 | MQLDEDDMIINIFWADDRSISDYNLFGDVICFEQLIRPMHMIDPLLICRGQSSQANSCVW | not soluble
13 | MESFELEDLTLWLIRDADEAEMWIDRWAVSYPVVQMSEASANGSTEAWQSALQTAFERIQGRHIAVVAHGAGAAAFLAWLYRADILTQKKLAGIILVSPRPDIFPDDAEHTFQRVRCPCRAALVVSEHGGVPHGWAQKQADLWNARLLVSPHSGSLNGMLGGWQWGMKLMQEMLLA | not soluble
14 | MHNKWYWTFKHILWGPILRVYNRPEIHGLENIPDKGSAILASNHQAVMDSFYLPLMSPRQITFPAKQEYFTTPGFVGSLQRWFFTAVGQVPIDRTSKSASDDLLKTARMVLDRGDLFGIYPEGTRSPDGRIYRGKTGMARIALDTNVAVVPIAMIGSRDANPIGTWIPRPHKVVIKVGEAISPRSFVSDAGYDPDSYEAMRFFTDHVMKVLADLTGQQYVDLYAADVKKSLAAGKGYPEGA | not soluble
15 | MGSDKIHHHHHHAESDSFEDNSSNFESMISLYGIQSATVDSKVGDVPSVTAEEMASVLEALRQNGNTIRNCESETLEGYYEGGDRKEVKMIAEYQARTRSGAFVEQFALCVSVNFNIDNNGGVFYIGTTYSSSTDLFNWQGYGASLSTTAEGNSVFSSTSYLYFRVSDQGNCLVKVPVSFKGSYNFKDNKGTYSFTLSKAAN | not soluble
